pKd: −log10 of the molar value.
Columns and labels:
[1] = molecular target: GST-obscurin-Ig58/Ig59^WT (human) (UniProt Q5VST9); assay: pull-down; 12 ug GST fusion protein on glutathione-Sepharose with 5 ul of the translation reaction; 10 mM Tris-HCl pH 7.9, 150 mM NaCl, 0.5% NONIDET P-40, 1 mM DTT, 1.5 hrs at 4°C; anti-myc Western blot, densitometry normalised to GST protein
[2] = molecular target: GST-linked titin ZIg9/ZIg10 (human) (UniProt Q8WZ42); assay: SPR; Nicoya OpenSPR, GST-linked titin ZIg9/ZIg10 immobilised on an Au-GST chip; obscurin Ig58/Ig59 injected at 50 ul/min; 20 mM Tris pH 7.5, 50 mM NaCl; 27°C (methods; 22°C in the legend of S11 Fig); 1:1 interaction model

Row | bound fraction, fold over GST-Ig58/Ig59^MUT [1] [fold] | pKd [2] | Substance
1 | 2 |  | myc-tagged titin domains ZIg9/ZIg10 (from UniProt Q8WZ42-12 1-35991) (domain or fragment)
2 |  | 6.97 | obscurin Ig58/Ig59 (wild type) (from UniProt Q5VST9 1-7968) (domain or fragment)
3 |  | 5.80 | obscurin Ig58/Ig59 p.Arg4444Trp (domain or fragment)
